Measured values reported in paper PMC6451128, “Structural and functional analysis of the nucleotide and DNA binding activities of the human PIF1 helicase”.

Key:
Test in all cases: EMSA; no nucleotide; 20 mM HEPES-NaOH pH 7.5 (Results say pH 7.2), 135 mM NaCl, 5% glycerol, 1 mM DTT, 1 mg/ml BSA, 20 min at 20 C; 0.4 nM T(35); G4 assay: 0.1 nM G4 DNA, 2% PEG 8000 instead of glycerol, 5 uM T(35) competitor
Conditions in all cases: protein: recombinant; tags: His tag removed, GSRM left; label: 5' 32P (PNK)
hPIF1HD K485E = target: T1, hPIF1HD K485E (human, UniProt Q9H611 206-620, K485E)
T1 sequence: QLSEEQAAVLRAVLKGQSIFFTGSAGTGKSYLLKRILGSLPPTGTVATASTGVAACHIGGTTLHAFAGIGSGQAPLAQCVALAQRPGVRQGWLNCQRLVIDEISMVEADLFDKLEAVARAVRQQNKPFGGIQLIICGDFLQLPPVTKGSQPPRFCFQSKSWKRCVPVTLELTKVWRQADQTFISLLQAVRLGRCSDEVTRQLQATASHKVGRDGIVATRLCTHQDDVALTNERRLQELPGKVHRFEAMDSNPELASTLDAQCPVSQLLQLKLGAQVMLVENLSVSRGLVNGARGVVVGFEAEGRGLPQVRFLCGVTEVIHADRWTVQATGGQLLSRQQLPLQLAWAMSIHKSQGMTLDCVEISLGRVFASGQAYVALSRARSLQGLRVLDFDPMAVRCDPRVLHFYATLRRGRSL

hPIF1HD F573A = target: T2, hPIF1HD F573A (human, UniProt Q9H611 206-620, F573A)
T2 sequence: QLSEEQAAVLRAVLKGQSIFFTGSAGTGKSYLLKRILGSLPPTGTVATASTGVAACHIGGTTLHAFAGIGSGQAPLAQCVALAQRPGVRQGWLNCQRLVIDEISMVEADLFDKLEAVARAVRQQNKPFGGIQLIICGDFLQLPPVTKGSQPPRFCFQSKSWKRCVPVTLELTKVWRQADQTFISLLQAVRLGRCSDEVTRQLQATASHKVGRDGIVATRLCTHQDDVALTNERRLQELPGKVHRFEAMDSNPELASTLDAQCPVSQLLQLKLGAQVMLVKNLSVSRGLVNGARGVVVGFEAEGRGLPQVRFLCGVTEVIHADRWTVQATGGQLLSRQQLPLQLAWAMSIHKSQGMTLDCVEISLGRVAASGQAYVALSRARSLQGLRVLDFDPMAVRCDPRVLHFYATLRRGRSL

hPIF1HD N495A = target: T3, hPIF1HD N495A (human, UniProt Q9H611 206-620, N495A)
T3 sequence: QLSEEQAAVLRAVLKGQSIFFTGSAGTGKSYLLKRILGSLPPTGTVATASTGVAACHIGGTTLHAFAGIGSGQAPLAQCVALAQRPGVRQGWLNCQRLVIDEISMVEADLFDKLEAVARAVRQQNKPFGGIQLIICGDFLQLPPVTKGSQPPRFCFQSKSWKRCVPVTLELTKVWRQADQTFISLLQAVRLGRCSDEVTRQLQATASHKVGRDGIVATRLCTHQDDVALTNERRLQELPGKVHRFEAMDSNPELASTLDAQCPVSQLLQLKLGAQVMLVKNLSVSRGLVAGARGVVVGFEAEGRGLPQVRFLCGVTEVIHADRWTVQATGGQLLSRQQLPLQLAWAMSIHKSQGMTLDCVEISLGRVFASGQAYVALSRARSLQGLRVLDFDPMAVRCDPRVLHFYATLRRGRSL

Measured: binding signal

TTTTTTTTTTTTTTTTTTTTTTTTTTTTTTTTTTT (ssDNA) [poly-T(35)]
> 50 fold decrease in affinity vs WT: all assays above
